Target: IL-17A (24-155) protein (human, UniProt Q16552 24-155)
Assay: indirect ELISA screening of hybridomas

Sequence of IL-17A (24-155) protein (Q16552 24-155): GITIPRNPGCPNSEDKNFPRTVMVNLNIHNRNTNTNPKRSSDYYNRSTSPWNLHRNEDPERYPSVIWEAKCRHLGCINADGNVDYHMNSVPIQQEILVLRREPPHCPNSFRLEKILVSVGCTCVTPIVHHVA

Row | Binder | binding result
1 | monoclonal murine antibody 13E9 (antibody, V domains shown, Mouse hybridoma antibody purified on protein A; also called antibody secreted by hybridoma cell line LT006 (IL-17A-13E9)) VH: EVKLQESGPGLVKPSQSLSLTCTVTSYSFTSDYAWSWIRQFPGIKLEWMGYITYSGVTSYNPSLKSRISITRDTSKNQFFLQLNSVTTEDTATYYCARADYDSYYTMDYWGQGTSVTVSS VL: DIQLTQSPLSLPVSLGDQASISCRSSQSLVHSNGNTYLHWYLQKPGQSPRLLIYKVSNRFSGVPDRFSGSGSGTDFTLKISRVEAEDLGVYFCSQSTHFWTFGGGTKLEIK | binds
2 | monoclonal murine antibody 2G2 (antibody, V domains shown, Mouse hybridoma antibody purified on protein A; also called antibody secreted by hybridoma cell line LT007 (IL-17A-2G2)) VH: EVQLEQSGSELRSPGSSVKLSCKDFDSEVFPIADMSWVRQKPGHGFEWIGDILPSFGRTIYGEKFEDKAKVDADTVSNTAYLELNSLTSEDSAIYYCARGNYGFAYWGQGTLVTVSA VL: not shown | binds
